Reference: US12679870 (US Dept. of Health and Human Services, dated 2026)

Target: T1, HMPV F v3BΔ12 (V84C/A249C, A140C/A147C, substitution of HMPV F positions 89-112 to GSGGSG) (human metapneumovirus, B2 strain …)
T1 construct: That entry starts at K20, has no tags, and differs from the v3-B backbone at positions 185 and 323; also called HMPV F v3B with the L0.1 F1/F2 linker
T1 chain: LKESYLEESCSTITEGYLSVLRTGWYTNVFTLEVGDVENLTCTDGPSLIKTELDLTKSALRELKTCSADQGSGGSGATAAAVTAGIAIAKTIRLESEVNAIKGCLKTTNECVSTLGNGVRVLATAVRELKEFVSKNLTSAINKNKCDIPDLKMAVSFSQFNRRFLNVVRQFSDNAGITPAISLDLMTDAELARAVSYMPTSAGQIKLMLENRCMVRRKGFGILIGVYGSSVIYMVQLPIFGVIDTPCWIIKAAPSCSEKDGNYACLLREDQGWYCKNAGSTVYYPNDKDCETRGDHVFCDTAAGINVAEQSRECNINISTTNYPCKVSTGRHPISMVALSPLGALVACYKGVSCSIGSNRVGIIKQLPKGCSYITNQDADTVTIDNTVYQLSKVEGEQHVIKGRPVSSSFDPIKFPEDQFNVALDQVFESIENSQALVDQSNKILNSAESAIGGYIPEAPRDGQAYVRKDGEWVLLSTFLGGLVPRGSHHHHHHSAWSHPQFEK
Experiment: antigenic assessment of F1/F2 linker variants, FIG. 13

B1: MPE8 antibody (Fab, V domains shown)
VH: EVQLVESGGGLVKPGGSLRLSCAASGFTFSSYSMNWVRQAPGKGLEWVSSISASSSYSDYADSAKGRFTISRDNAKTSLFLQMNSLRAEDTAIYFCARARATGYSSITPYFDIWGQGTLVTVSS
VL: QSVVTQPPSVSGAPGQRVTISCTGSSSNIGAGYDVHWYQQLPGTAPKLLIYDNNNRPSGVPDRFSASKSGTSASLAITGLQAEDEADYYCQSYDRSLSGVFGTGTKVTVL
notes: The text calls it an antibody; also called prefusion specific antibody MPE8
Question: With B1 as the binder, how does the “fold increase in binding compared to v1B” value read?
Answer: > 10 fold
